Results taken from US20240076389A1.

Columns and labels:
[1] = molecular target: mouse AXL extracellular domain (Sino cat. 51026-M08H) (mouse) (UniProt Q00993); test: ELISA on coated AXL ECD (100 ng/well)
[2] = molecular target: recombinant human AXL extracellular domain, C-terminally His8-tagged (rhAXL-ECD) (human) (UniProt P30530); test: ELISA on coated AXL ECD (100 ng/well)
[3] = molecular target: cyAXL-ECD displayed on yeast; test: yeast surface display ELISA, non-denatured yeast, goat anti-human F(ab')2-HRP
[4] = molecular target: huAXL-ECD displayed on yeast (human) (UniProt P30530); test: as above
huAXL-ECD displayed on yeast (human), sequence (P30530 26-449, form in doubt): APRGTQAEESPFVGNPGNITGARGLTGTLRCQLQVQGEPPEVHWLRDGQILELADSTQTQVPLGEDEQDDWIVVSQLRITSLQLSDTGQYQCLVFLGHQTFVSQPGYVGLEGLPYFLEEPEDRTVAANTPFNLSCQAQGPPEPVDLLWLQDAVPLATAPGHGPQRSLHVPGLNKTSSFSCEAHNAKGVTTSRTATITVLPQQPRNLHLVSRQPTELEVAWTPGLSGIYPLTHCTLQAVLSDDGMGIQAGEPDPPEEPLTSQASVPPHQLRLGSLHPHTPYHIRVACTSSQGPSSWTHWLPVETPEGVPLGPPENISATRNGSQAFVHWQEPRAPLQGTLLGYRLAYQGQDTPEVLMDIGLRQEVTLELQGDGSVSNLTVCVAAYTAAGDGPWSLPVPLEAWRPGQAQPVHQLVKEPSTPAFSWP

[5] = molecular target: huMER-ECD displayed on yeast (human) (UniProt Q12866); test: as above
huMER-ECD displayed on yeast (human), sequence (Q12866 21-505): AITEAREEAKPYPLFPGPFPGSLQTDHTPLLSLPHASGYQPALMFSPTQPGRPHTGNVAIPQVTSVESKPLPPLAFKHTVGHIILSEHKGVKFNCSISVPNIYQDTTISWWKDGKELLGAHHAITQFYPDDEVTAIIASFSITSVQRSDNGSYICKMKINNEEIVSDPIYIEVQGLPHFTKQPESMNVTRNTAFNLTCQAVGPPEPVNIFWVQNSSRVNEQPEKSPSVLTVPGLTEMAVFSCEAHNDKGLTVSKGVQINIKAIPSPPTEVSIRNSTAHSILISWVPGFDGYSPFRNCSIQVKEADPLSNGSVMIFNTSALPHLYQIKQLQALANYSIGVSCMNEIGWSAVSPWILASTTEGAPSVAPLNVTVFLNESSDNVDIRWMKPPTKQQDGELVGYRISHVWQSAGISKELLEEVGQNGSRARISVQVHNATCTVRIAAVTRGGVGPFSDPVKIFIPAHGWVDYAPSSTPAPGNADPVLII

[6] = molecular target: huTyro3-ECD displayed on yeast (human) (UniProt Q06418); test: as above
huTyro3-ECD displayed on yeast (human), sequence (Q06418 41-429): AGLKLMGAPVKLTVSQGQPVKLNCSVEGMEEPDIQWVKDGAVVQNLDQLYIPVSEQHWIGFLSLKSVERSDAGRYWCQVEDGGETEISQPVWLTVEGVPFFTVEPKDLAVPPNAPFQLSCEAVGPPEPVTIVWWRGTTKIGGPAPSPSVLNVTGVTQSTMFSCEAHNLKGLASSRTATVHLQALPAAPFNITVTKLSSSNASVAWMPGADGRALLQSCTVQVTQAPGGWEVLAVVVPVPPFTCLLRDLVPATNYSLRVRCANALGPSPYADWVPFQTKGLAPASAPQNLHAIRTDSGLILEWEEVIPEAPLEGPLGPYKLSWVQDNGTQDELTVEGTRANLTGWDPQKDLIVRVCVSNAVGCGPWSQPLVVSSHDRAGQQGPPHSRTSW

mouse AXL extracellular domain (Sino cat. 51026-M08H) (mouse), sequence (Q00993 19-445, stated change not applied): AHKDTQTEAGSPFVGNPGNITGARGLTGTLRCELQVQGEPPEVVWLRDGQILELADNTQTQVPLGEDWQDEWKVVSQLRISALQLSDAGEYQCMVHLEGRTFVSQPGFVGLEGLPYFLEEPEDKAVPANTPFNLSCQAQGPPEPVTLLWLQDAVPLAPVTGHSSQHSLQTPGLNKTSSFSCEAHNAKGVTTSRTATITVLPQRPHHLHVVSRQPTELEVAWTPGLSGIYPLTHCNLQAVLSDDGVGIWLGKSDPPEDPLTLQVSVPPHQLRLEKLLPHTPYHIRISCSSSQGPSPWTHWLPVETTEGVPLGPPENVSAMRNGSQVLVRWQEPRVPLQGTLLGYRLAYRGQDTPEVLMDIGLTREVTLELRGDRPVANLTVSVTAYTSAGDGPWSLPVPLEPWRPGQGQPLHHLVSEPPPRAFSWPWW
recombinant human AXL extracellular domain, C-terminally His8-tagged (rhAXL-ECD) (human), sequence (P30530 other isoform, or with tags, fused parts or gaps limits assumed): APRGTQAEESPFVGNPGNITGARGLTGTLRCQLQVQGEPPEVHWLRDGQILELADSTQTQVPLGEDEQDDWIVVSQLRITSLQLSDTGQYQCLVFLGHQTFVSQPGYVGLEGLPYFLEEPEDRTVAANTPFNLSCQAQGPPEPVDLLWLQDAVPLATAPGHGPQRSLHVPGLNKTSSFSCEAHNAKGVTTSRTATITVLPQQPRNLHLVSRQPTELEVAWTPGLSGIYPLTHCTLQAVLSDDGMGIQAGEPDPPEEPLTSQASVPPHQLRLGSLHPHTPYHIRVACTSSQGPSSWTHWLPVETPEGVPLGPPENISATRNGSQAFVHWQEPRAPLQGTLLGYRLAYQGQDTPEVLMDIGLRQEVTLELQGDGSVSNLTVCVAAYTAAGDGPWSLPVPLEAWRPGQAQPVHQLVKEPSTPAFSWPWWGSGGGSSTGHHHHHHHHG

| EC50 [1] | EC50 [2] | yeast ELISA signal normalized to myc expression level [3] | yeast ELISA signal normalized to myc expression level [4] | yeast ELISA signal normalized to myc expression level [5] | yeast ELISA signal normalized to myc expression level [6] | Substance |
| --- | --- | --- | --- | --- | --- | --- |
| 1 nM | 61 nM |  |  |  |  | MAB8541 (R&D Systems), commercial anti-mouse AXL mAb, clone 175128, rat IgG2A (antibody) |
|  |  | -0.004 | 0.087 | -0.001 | 0.059 | hFC-anti-RSV (antibody) |
